# T1: Kapβ2 (untagged, GST removed) (human, UniProt Q92973-2 1-890)
# T1 construct: Karyopherin β2 (Kapβ2, Transportin-1, TNPO1), human; used for ITC and turbidity assays; also called Karyopherin-β2; Transportin-1; source: E. coli BL21 (DE3), purified (GSH column, Tev cleavage, anion exchange, SEC Superdex200)
# T1 sequence (looked up): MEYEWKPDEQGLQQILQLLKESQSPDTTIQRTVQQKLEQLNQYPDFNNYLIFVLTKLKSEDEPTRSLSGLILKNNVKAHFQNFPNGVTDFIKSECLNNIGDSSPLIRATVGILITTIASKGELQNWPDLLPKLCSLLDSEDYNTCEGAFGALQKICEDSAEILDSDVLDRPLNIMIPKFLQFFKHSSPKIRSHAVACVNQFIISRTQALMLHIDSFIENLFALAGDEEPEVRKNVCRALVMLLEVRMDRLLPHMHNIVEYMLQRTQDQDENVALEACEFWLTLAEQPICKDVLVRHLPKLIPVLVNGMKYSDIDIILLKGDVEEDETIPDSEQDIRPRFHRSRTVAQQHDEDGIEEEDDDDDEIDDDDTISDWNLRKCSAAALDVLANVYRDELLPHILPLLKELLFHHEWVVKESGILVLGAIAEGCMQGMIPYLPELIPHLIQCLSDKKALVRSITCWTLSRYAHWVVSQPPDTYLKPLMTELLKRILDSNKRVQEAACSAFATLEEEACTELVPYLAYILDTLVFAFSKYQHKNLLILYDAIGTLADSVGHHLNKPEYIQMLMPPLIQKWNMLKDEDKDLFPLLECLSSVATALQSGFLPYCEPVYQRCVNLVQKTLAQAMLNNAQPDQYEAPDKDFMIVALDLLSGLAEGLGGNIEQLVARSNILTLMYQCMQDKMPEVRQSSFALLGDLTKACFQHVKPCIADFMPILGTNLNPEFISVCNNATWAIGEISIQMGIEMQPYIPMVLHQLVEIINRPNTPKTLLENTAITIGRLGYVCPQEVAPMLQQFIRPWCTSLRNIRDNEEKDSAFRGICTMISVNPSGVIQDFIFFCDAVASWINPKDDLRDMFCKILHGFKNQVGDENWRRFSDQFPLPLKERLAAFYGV
# T2: GST-Kapβ2 (Karyopherin-β2) (human, UniProt Q92973-2 1-890)
# T2 construct: Karyopherin β2 (Kapβ2, Transportin-1, TNPO1), human; GST-importin eluted with glutathione and immobilised again on GSH beads for pull-downs; also called Transportin-1; TNPO1; source: E. coli BL21 (DE3), purified (GSH Sepharose, anion exchange, SEC)
# T2 sequence (looked up): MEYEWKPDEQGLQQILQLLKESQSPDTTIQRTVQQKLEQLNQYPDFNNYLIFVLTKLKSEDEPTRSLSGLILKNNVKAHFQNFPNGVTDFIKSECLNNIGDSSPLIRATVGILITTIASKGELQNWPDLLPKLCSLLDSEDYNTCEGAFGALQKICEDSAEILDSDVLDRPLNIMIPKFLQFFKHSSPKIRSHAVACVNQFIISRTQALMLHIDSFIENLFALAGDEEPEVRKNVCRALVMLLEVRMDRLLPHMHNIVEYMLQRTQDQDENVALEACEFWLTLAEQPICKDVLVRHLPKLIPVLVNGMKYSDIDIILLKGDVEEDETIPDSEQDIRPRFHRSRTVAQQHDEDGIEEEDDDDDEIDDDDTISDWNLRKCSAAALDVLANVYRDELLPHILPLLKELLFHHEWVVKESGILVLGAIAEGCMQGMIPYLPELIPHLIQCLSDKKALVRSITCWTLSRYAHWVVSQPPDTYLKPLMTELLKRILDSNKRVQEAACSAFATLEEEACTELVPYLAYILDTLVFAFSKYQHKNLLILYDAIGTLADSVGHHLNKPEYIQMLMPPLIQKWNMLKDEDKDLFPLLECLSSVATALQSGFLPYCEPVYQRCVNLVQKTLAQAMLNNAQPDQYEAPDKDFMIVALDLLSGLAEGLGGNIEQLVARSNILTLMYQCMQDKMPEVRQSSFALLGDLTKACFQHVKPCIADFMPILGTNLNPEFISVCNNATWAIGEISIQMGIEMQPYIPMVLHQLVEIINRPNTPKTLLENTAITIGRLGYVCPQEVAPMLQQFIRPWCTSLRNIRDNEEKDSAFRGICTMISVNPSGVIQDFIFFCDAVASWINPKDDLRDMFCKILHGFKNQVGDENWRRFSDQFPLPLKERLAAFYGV
# Target: T1, Kapβ2 (untagged, GST removed)
# Test: ITC; 10 μM Kapβ2 in the cell, 100 μM or 200 μM MBP-FUS protein in the syringe; 20 mM Tris–HCl, 150 mM NaCl, 10% glycerol, 2 mM BME; 20 °C; single class of binding sites, global analysis of duplicates or triplicates
# Conditions: both partners purified
row,Binder,Kd [nM]
1,"MBP-FUS PY-NLS (residues 475–526) (domain or fragment, UniProt P35637 475-526, looked up, FUS residues 475–526 (PY-NLS); also called FUS(475–526); WT FUS^PY-NLS; source: E. coli BL21 (DE3), purified (amylose resin, SEC); not shown: MBP, N-terminal, kept) GRGGYDRGGYRGRGGDRGGFRGGRGGGDRGGFGPGKMDSRGEHRQDRRERPY",31
2,"MBP-FUS PY-NLS (P525L) (residues 475–526) (domain or fragment, UniProt P35637 475-526, looked up, FUS residues 475–526 with the ALS mutation P525L; also called FUS(P525L)^PY-NLS; source: E. coli BL21 (DE3), purified (amylose resin, SEC); not shown: MBP, N-terminal, kept) GRGGYDRGGYRGRGGDRGGFRGGRGGGDRGGFGPGKMDSRGEHRQDRRERLY",180
3,"MBP-FUS(371–452) (RGG2-ZnF) (domain or fragment, UniProt P35637 371-452, looked up, also called FUS RGG2-ZnF; source: E. coli BL21 (DE3), purified (amylose resin, SEC); not shown: MBP, N-terminal, kept) RRADFNRGGGNGRGGRGRGGPMGRGGYGGGGSGGGGRGGFPSGGGGGGGQQRAGDWKCPNPTCENMNFSWRNECNQCKAPKP",4000
4,"MBP-FUS(371–500) (RGG2-ZnF-RGG3) (domain or fragment, UniProt P35637 371-500, looked up, also called FUS RGG2-ZnF-RGG3; source: E. coli BL21 (DE3), purified (amylose resin, SEC); not shown: MBP, N-terminal, kept) RRADFNRGGGNGRGGRGRGGPMGRGGYGGGGSGGGGRGGFPSGGGGGGGQQRAGDWKCPNPTCENMNFSWRNECNQCKAPKPDGPGGGPGGSHMGGNYGDDRRGGRGGYDRGGYRGRGGDRGGFRGGRGG",170

# Target: T1, Kapβ2 (untagged, GST removed)
# Test: ITC; reversed set-up: 10 μM MBP-FUS protein in the cell, 100 μM or 200 μM Kapβ2 in the syringe; 20 mM Tris–HCl, 150 mM NaCl, 10% glycerol, 2 mM BME; 20 °C; single class of binding sites; 'apparent' KD for FUS(1–370)
# Conditions: both partners purified
row,Binder,Kd [nM]
1,"MBP-FUS(1–500) (domain or fragment, UniProt P35637 1-500, looked up, FUS residues 1–500; in the turbidity assays MBP is cut off by Tev during the assay; source: E. coli BL21 (DE3), purified (amylose resin, SEC); not shown: MBP, N-terminal, kept) MASNDYTQQATQSYGAYPTQPGQGYSQQSSQPYGQQSYSGYSQSTDTSGYGQSSYSSYGQSQNTGYGTQSTPQGYGSTGGYGSSQSSQSSYGQQSSYPGYGQQPAPSSTSGSYGSSSQSSSYGQPQSGSYSQQPSYGGQQQSYGQQQSYNPPQGYGQQNQYNSSSGGGGGGGGGGNYGQDQSSMSSGGGSGGGYGNQDQSGGGGSGGYGQQDRGGRGRGGSGGGGGGGGGGYNRSSGGYEPRGRGGGRGGRGGMGGSDRGGFNKFGGPRDQGSRHDSEQDNSDNNTIFVQGLGENVTIESVADYFKQIGIIKTNKKTGQPMINLYTDRETGKLKGEATVSFDDPPSAKAAIDWFDGKEFSGNPIKVSFATRRADFNRGGGNGRGGRGRGGPMGRGGYGGGGSGGGGRGGFPSGGGGGGGQQRAGDWKCPNPTCENMNFSWRNECNQCKAPKPDGPGGGPGGSHMGGNYGDDRRGGRGGYDRGGYRGRGGDRGGFRGGRGG",160
2,"MBP-FUS(1–370) (domain or fragment, UniProt P35637 1-370, looked up, FUS residues 1–370 (missing RGG2-ZnF-RGG3-PYNLS); also called FUS LC-RGG1; source: E. coli BL21 (DE3), purified (amylose resin, SEC); not shown: MBP, N-terminal, kept) MASNDYTQQATQSYGAYPTQPGQGYSQQSSQPYGQQSYSGYSQSTDTSGYGQSSYSSYGQSQNTGYGTQSTPQGYGSTGGYGSSQSSQSSYGQQSSYPGYGQQPAPSSTSGSYGSSSQSSSYGQPQSGSYSQQPSYGGQQQSYGQQQSYNPPQGYGQQNQYNSSSGGGGGGGGGGNYGQDQSSMSSGGGSGGGYGNQDQSGGGGSGGYGQQDRGGRGRGGSGGGGGGGGGGYNRSSGGYEPRGRGGGRGGRGGMGGSDRGGFNKFGGPRDQGSRHDSEQDNSDNNTIFVQGLGENVTIESVADYFKQIGIIKTNKKTGQPMINLYTDRETGKLKGEATVSFDDPPSAKAAIDWFDGKEFSGNPIKVSFAT",35000

# Target: T2, GST-Kapβ2 (Karyopherin-β2)
# Test: pull-down; 4–8 μM GST-importin (or GST) immobilised on 50 μL GSH beads; 4–8 μM MBP-FUS protein or GSP1 added in 100 μL; 20 mM HEPES pH 7.4, 110 mM potassium acetate, 2 mM magnesium acetate, 2 mM DTT, 15% glycerol; 30 min at 25 °C, three washes; Coomassie-stained SDS-PAGE
# Conditions: both partners purified
row,Binder,binding result
1,"MBP-FUS(277–500) (domain or fragment, UniProt P35637 277-500, looked up, source: E. coli BL21 (DE3), purified (amylose resin, SEC); not shown: MBP, N-terminal, kept) SEQDNSDNNTIFVQGLGENVTIESVADYFKQIGIIKTNKKTGQPMINLYTDRETGKLKGEATVSFDDPPSAKAAIDWFDGKEFSGNPIKVSFATRRADFNRGGGNGRGGRGRGGPMGRGGYGGGGSGGGGRGGFPSGGGGGGGQQRAGDWKCPNPTCENMNFSWRNECNQCKAPKPDGPGGGPGGSHMGGNYGDDRRGGRGGYDRGGYRGRGGDRGGFRGGRGG",binds
2,"MBP-FUS(1–430) (domain or fragment, UniProt P35637 1-430, looked up, FUS residues 1–430 (missing ZnF-RGG3-PYNLS); source: E. coli BL21 (DE3), purified (amylose resin, SEC); not shown: MBP, N-terminal, kept) MASNDYTQQATQSYGAYPTQPGQGYSQQSSQPYGQQSYSGYSQSTDTSGYGQSSYSSYGQSQNTGYGTQSTPQGYGSTGGYGSSQSSQSSYGQQSSYPGYGQQPAPSSTSGSYGSSSQSSSYGQPQSGSYSQQPSYGGQQQSYGQQQSYNPPQGYGQQNQYNSSSGGGGGGGGGGNYGQDQSSMSSGGGSGGGYGNQDQSGGGGSGGYGQQDRGGRGRGGSGGGGGGGGGGYNRSSGGYEPRGRGGGRGGRGGMGGSDRGGFNKFGGPRDQGSRHDSEQDNSDNNTIFVQGLGENVTIESVADYFKQIGIIKTNKKTGQPMINLYTDRETGKLKGEATVSFDDPPSAKAAIDWFDGKEFSGNPIKVSFATRRADFNRGGGNGRGGRGRGGPMGRGGYGGGGSGGGGRGGFPSGGGGGGGQQRAGDWKCPN",binds
3,"MBP-FUS(121–500) (domain or fragment, UniProt P35637 121-500, looked up, source: E. coli BL21 (DE3), purified (amylose resin, SEC); not shown: MBP, N-terminal, kept) SYGQPQSGSYSQQPSYGGQQQSYGQQQSYNPPQGYGQQNQYNSSSGGGGGGGGGGNYGQDQSSMSSGGGSGGGYGNQDQSGGGGSGGYGQQDRGGRGRGGSGGGGGGGGGGYNRSSGGYEPRGRGGGRGGRGGMGGSDRGGFNKFGGPRDQGSRHDSEQDNSDNNTIFVQGLGENVTIESVADYFKQIGIIKTNKKTGQPMINLYTDRETGKLKGEATVSFDDPPSAKAAIDWFDGKEFSGNPIKVSFATRRADFNRGGGNGRGGRGRGGPMGRGGYGGGGSGGGGRGGFPSGGGGGGGQQRAGDWKCPNPTCENMNFSWRNECNQCKAPKPDGPGGGPGGSHMGGNYGDDRRGGRGGYDRGGYRGRGGDRGGFRGGRGG",binds
4,"MBP-FUS(1–452) (domain or fragment, UniProt P35637 1-452, looked up, source: E. coli BL21 (DE3), purified (amylose resin, SEC); not shown: MBP, N-terminal, kept) MASNDYTQQATQSYGAYPTQPGQGYSQQSSQPYGQQSYSGYSQSTDTSGYGQSSYSSYGQSQNTGYGTQSTPQGYGSTGGYGSSQSSQSSYGQQSSYPGYGQQPAPSSTSGSYGSSSQSSSYGQPQSGSYSQQPSYGGQQQSYGQQQSYNPPQGYGQQNQYNSSSGGGGGGGGGGNYGQDQSSMSSGGGSGGGYGNQDQSGGGGSGGYGQQDRGGRGRGGSGGGGGGGGGGYNRSSGGYEPRGRGGGRGGRGGMGGSDRGGFNKFGGPRDQGSRHDSEQDNSDNNTIFVQGLGENVTIESVADYFKQIGIIKTNKKTGQPMINLYTDRETGKLKGEATVSFDDPPSAKAAIDWFDGKEFSGNPIKVSFATRRADFNRGGGNGRGGRGRGGPMGRGGYGGGGSGGGGRGGFPSGGGGGGGQQRAGDWKCPNPTCENMNFSWRNECNQCKAPKP",binds
5,"MBP-FUS (full length) (natural protein, UniProt P35637 1-526, looked up, Fused in Sarcoma (FUS), full length; in the turbidity assays MBP is cut off by Tev during the assay; also called FL-FUS; MBP-FL FUS; source: E. coli BL21 (DE3), purified (amylose resin, SEC); not shown: MBP, N-terminal, kept) MASNDYTQQATQSYGAYPTQPGQGYSQQSSQPYGQQSYSGYSQSTDTSGYGQSSYSSYGQSQNTGYGTQSTPQGYGSTGGYGSSQSSQSSYGQQSSYPGYGQQPAPSSTSGSYGSSSQSSSYGQPQSGSYSQQPSYGGQQQSYGQQQSYNPPQGYGQQNQYNSSSGGGGGGGGGGNYGQDQSSMSSGGGSGGGYGNQDQSGGGGSGGYGQQDRGGRGRGGSGGGGGGGGGGYNRSSGGYEPRGRGGGRGGRGGMGGSDRGGFNKFGGPRDQGSRHDSEQDNSDNNTIFVQGLGENVTIESVADYFKQIGIIKTNKKTGQPMINLYTDRETGKLKGEATVSFDDPPSAKAAIDWFDGKEFSGNPIKVSFATRRADFNRGGGNGRGGRGRGGPMGRGGYGGGGSGGGGRGGFPSGGGGGGGQQRAGDWKCPNPTCENMNFSWRNECNQCKAPKPDGPGGGPGGSHMGGNYGDDRRGGRGGYDRGGYRGRGGDRGGFRGGRGGGDRGGFGPGKMDSRGEHRQDRRERPY",binds
